Results taken from publication PMC9521928 (2022).

Columns and labels:
[1] = biological target: T1, CPXV14-His (His-tagged recombinant cowpox virus Brighton Red CPXV14) (cowpox virus (Brighton Red strain)); test: BLI
[2] = biological target: T1, CPXV14-His (His-tagged recombinant …); test: BLI; remark: listed apart in the source

B1: soluble recombinant murine FcγRIIB (mCD32B) ectodomain (receptor)
chain: THDLPKAVVKLEPPWIQVLKEDTVTLTCEGTHNPGNSSTQWFHNGRSIRSQVQASYTFKATVNDSGEYRCQMEQTRLSDPVDLGVISDWLLLQTPQLVFLEGETITLRCHSWRNKLLNRISFFHNEKSVRYHHYSSNFSIPKANHSHSGDYYCKGSLGRTLHQSKPVTITVQGPKSSRSLP
B1 showed a Kd [1] of 2.94 nM and a koff [2] of 0.00198 s⁻¹.
